Measurements taken from patent US20230203177A1 (Bristol-Myers Squibb, published 2023).
Where a chain is given by its changes, count along the chain named. Numbers in names are those of the source.

B1: M4 (HC-K12E / LC-wt) (antibody, human IgG1, kappa)
heavy: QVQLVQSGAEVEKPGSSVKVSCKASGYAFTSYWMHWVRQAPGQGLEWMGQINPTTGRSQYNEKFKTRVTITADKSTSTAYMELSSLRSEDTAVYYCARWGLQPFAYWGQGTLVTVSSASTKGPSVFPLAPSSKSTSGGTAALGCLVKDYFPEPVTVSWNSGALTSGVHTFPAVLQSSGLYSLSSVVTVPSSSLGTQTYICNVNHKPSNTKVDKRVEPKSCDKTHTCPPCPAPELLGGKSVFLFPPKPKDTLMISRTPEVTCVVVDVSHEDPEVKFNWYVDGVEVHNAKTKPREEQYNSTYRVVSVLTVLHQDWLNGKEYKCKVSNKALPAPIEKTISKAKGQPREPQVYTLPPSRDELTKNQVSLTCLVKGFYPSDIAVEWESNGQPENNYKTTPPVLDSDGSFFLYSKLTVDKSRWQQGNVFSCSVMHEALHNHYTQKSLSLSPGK
light: DIQMTQSPSFLSASVGDRVTITCKASQDVSTAVAWYQQKPGKAPKLLIYSASYRYTGVPSRFSGSGSGTDFTLTISSLQPEDFATYYCQQHYSTPWTFGGGTKVEIKRTVAAPSVFIFPPSDEQLKSGTASVVCLLNNFYPREAKVQWKVDNALQSGNSQESVTEQDSKDSTYSLSSTLTLSKADYEKHKVYACEVTHQGLSSPVTKSFNRGEC
notes: IgG1-P238K; two production batches; also called HC4/LC1; M4-b
B2: M94 (HC-K74T / LC-K107Q,R108Q) (antibody, human IgG1, kappa)
heavy: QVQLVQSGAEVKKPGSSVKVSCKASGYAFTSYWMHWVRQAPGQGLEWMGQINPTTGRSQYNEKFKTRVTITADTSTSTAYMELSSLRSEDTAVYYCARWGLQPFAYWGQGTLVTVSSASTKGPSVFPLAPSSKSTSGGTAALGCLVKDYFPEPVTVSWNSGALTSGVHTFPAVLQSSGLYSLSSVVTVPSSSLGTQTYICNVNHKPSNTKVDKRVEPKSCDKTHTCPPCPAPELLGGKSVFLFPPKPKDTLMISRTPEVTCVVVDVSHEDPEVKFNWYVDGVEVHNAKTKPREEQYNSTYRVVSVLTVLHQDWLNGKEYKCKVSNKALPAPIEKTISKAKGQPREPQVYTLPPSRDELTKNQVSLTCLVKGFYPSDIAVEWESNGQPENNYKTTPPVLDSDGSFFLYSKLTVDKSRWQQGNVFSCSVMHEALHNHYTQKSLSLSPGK
light: B1 light with K107Q, R108Q
notes: IgG1-P238K; also called HC14/LC6
B3: M37 (HC-K12E,K13Q,K23E / LC-K45E) (antibody, human IgG1, kappa)
heavy: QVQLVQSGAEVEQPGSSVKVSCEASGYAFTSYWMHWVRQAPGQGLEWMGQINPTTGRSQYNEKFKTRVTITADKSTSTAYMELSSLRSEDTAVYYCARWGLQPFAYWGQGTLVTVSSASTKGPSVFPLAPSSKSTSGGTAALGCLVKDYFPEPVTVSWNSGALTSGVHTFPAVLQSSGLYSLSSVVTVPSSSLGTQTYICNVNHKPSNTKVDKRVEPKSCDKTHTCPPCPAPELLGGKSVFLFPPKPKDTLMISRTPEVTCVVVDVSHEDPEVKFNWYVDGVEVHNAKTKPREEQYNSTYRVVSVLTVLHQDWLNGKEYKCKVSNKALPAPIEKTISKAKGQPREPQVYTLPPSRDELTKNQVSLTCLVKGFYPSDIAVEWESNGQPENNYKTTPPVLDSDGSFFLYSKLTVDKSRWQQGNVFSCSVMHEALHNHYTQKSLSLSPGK
light: B1 light with K45E
notes: IgG1-P238K; also called HC5/LC3
B4: M47 (HC-R67Q / LC-K45E) (antibody, human IgG1, kappa, V domains shown)
VH: QVQLVQSGAEVKKPGSSVKVSCKASGYAFTSYWMHWVRQAPGQGLEWMGQINPTTGRSQYNEKFKTQVTITADKSTSTAYMELSSLRSEDTAVYYCARWGLQPFAYWGQGTLVTVSS
VL: DIQMTQSPSFLSASVGDRVTITCKASQDVSTAVAWYQQKPGKAPELLIYSASYRYTGVPSRFSGSGSGTDFTLTISSLQPEDFATYYCQQHYSTPWTFGGGTKVEIKR
notes: IgG1-P238K; also called HC15/LC3
B5: M95 (HC-R67Q / LC-K107Q,R108Q) (antibody, human IgG1, kappa)
heavy: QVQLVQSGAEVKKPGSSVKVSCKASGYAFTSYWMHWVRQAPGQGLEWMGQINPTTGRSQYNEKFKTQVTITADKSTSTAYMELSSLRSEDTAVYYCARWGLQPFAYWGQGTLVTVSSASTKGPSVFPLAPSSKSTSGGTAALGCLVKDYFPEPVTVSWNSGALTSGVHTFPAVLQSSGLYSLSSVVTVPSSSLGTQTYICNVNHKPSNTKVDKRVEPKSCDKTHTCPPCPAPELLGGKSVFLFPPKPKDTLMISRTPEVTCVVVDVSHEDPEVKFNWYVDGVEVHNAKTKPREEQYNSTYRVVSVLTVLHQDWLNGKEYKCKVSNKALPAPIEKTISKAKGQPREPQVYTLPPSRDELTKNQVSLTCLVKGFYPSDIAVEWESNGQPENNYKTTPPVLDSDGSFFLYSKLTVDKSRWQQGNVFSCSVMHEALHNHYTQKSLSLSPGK
light: B1 light with K107Q, R108Q
notes: IgG1-P238K; also called HC15/LC6
B6: M96 (HC-K63Q / LC-K107Q,R108Q) (antibody, human IgG1, kappa)
heavy: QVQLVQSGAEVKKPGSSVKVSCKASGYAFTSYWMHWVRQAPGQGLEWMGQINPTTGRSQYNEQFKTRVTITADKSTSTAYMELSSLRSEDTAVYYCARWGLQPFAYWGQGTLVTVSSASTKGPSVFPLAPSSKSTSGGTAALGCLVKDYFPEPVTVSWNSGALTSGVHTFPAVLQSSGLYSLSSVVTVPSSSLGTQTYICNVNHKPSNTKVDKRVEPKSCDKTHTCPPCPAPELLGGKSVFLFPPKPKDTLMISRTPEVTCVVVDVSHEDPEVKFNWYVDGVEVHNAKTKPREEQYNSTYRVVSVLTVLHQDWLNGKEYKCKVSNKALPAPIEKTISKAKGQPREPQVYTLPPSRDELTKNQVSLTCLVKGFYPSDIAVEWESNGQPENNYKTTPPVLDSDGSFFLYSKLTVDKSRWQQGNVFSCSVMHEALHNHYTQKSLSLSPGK
light: B1 light with K107Q, R108Q
notes: IgG1-P238K; also called HC16/LC6
B7: M63 (HC-R67Q / LC-K45Q,R54Q,R61Q) (antibody, human IgG1, kappa, V domains shown)
VH: B4 VH
VL: B4 VL with E45Q, R54Q, R61Q
notes: IgG1-P238K; also called HC15/LC4
B8: M36 (HC-K12E / LC-K45E) (antibody, human IgG1, kappa)
heavy: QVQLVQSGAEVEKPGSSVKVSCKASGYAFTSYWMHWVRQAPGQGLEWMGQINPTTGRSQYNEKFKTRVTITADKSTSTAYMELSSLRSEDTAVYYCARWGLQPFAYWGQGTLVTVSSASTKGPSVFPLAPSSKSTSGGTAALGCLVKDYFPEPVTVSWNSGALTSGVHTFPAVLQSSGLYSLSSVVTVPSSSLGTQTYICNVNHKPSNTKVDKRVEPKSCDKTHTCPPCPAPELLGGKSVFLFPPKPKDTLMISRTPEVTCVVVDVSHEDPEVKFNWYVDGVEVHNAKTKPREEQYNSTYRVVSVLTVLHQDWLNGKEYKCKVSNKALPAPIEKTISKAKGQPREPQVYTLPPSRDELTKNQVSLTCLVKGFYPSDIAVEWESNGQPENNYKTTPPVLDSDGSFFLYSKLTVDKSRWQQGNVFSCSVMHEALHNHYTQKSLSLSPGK
light: B1 light with K45E
notes: IgG1-P238K; also called HC4/LC3
B9: M13 (HC-E46K,E62K / LC-wt) (antibody, human IgG1, kappa)
heavy: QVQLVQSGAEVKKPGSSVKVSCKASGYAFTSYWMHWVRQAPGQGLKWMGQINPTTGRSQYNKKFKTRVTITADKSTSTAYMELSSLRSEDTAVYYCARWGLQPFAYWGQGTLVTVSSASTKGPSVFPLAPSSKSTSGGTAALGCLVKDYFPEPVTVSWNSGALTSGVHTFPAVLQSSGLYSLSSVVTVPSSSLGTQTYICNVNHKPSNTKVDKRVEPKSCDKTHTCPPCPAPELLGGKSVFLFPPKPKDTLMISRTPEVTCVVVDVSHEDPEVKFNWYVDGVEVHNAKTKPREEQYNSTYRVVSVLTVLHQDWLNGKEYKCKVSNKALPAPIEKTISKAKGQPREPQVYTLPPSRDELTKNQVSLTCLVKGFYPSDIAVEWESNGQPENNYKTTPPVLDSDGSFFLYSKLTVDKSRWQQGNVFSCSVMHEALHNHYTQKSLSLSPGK
light: B1 light
notes: IgG1-P238K; proof of concept control with more positive charge; also called HC13/LC1
B10: M54 (HC-K12V,K19S,K23A / LC-K45Q,R54Q,R61Q) (antibody, human IgG1, kappa, V domains shown)
VH: B4 VH with K12V, K19S, K23A, Q67R
VL: B4 VL with E45Q, R54Q, R61Q
notes: IgG1-P238K; also called HC6/LC4
B11: M10 (HC-R67E / LC-wt) (antibody, human IgG1, kappa)
heavy: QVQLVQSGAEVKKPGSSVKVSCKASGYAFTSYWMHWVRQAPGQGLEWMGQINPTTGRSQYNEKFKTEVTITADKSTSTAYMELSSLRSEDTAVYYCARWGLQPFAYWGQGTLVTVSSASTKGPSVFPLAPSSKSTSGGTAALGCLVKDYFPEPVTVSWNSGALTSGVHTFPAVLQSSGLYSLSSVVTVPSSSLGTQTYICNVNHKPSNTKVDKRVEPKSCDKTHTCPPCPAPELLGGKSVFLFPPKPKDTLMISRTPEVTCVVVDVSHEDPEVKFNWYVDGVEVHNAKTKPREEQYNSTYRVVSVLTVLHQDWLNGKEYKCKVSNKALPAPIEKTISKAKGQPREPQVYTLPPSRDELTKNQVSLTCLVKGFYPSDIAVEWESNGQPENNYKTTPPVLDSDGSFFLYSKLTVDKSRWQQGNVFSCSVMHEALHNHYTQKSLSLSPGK
light: B1 light
notes: IgG1-P238K; also called HC10/LC1
B12: M49 (HC-wt / LC-K45Q,R54Q,R61Q) (antibody, human IgG1, kappa)
heavy: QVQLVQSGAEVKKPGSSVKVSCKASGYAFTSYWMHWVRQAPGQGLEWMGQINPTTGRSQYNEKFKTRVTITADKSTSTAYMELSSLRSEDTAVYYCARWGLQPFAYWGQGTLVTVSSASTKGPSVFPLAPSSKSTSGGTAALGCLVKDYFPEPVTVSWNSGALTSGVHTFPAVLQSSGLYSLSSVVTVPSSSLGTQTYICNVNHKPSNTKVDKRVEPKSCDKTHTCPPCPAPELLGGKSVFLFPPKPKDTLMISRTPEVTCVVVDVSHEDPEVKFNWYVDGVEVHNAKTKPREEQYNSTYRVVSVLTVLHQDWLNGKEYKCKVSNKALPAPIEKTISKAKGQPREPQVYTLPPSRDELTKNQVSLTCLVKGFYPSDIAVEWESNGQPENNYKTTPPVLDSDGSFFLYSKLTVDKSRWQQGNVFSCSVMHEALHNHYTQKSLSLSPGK
light: B1 light with K45Q, R54Q, R61Q
notes: IgG1-P238K; also called HC1/LC4
B13: M53 (HC-K12E,K13Q,K23E / LC-K45Q,R54Q,R61Q) (antibody, human IgG1, kappa)
heavy: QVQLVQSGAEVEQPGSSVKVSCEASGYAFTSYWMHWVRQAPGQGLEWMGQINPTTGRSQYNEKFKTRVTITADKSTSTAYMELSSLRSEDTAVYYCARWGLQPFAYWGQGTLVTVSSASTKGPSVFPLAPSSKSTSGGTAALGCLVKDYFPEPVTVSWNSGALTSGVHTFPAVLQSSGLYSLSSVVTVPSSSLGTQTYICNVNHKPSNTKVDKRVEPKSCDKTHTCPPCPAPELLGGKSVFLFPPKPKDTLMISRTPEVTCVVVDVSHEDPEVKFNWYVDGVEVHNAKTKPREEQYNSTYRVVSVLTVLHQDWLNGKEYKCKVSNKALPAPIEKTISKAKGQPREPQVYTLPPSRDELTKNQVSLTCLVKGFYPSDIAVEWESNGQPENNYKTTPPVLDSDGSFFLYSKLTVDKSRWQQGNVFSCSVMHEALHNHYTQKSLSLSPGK
light: B1 light with K45Q, R54Q, R61Q
notes: IgG1-P238K; also called HC5/LC4
B14: M80 (HC-K63Q / LC-R61Q) (antibody, human IgG1, kappa, V domains shown)
VH: B4 VH with K63Q, Q67R
VL: B4 VL with E45K, R61Q
notes: IgG1-P238K; also called HC16/LC5
B15: M38 (HC-K12V,K19S,K23A / LC-K45E) (antibody, human IgG1, kappa, V domains shown)
VH: B4 VH with K12V, K19S, K23A, Q67R
VL: B4 VL
notes: IgG1-P238K; also called HC6/LC3
B16: M33 (HC-wt / LC-K45E) (antibody, human IgG1, kappa)
heavy: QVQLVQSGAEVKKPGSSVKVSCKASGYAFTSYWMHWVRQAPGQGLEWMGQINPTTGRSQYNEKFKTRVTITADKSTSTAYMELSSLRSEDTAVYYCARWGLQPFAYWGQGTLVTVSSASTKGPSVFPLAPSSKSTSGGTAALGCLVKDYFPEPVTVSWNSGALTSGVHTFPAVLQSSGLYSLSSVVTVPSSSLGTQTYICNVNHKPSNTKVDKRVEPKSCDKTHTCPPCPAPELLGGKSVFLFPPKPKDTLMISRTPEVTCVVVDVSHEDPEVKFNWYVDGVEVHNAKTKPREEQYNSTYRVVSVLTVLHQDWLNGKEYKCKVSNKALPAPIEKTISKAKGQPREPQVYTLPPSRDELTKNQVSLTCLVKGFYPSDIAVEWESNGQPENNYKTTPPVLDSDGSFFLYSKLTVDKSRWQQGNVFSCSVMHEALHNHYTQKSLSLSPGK
light: B1 light with K45E
notes: IgG1-P238K; also called HC1/LC3
B17: M62 (HC-K74T / LC-K45Q,R54Q,R61Q) (antibody, human IgG1, kappa, V domains shown)
VH: B4 VH with Q67R, K74T
VL: B4 VL with E45Q, R54Q, R61Q
notes: IgG1-P238K; also called HC14/LC4

What was measured:
[1] = target: T1, soluble human CD40 extracellular domain (human, UniProt P25942 21-193); experiment: SPR, antibody captured from supernatant on protein A chip, soluble hCD40 ECD at 5 and 50 nM (summary table of the 16 chosen antibodies)
T1 construct: Produced in house; also called hCD40; soluble hCD40 extracellular domain

[2] = target: T1, soluble human CD40 extracellular domain; experiment: SPR, Ab captured from supernatant on protein A, hCD40 ECD analyte
How it was run: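 Soluble human CD40 extracellular domain flowed at 50/500 nM (or 5/50 nM) over antibody held on protein A at 3 μg/ml, with 180 s on- and off-phases. Run in PBS-T pH 7.2 at 25 °C; kinetics from 1:1 Langmuir model.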

[3] = target: T1, soluble human CD40 extracellular domain; experiment: SPR, purified Ab on protein A, 6 concentrations of hCD40 ECD
Experimental: Additionally, to more accurately define the dissociation rate (kd), a longer dissociation time of 360 seconds (s) was used as opposed to the shorter 180 s dissociation that had been used in the supernatant screening experiment.
CD40 binding SPR: SPR studies of the purified antibodies were conducted on BIAcore™ T200 instrument (GE Healthcare, Chicago Ill.). A Series S Protein A sensor chip (GE Healthcare, Chicago Ill.) was equilibrated with SPR running buffer of 10 mM NaPO₄, 130 mM NaCl, 0.05% tween 20, (PBS-T) pH 7.2 at 25° C. The purified antibody samples were diluted to 3 μg/ml in PBS-T and captured on the protein A surface for 30 s at 10 μl/min Binding of 3.91, 7.81, 15.6, 31.3, 62.5, and 125 nM human CD40 extracellular domain (produced in house) was evaluated using association time of 180 s at 30 μl/min, followed by a dissociation time of 360 s at 30 μl/min Regeneration between cycles was accomplished using two 15 s injections of 10 mM glycine pH 1.5. […] Data were analyzed using BIAcore™ T200 evaluation software by fitting to a 1:1 Langmuir model.

[4] = target: human CD40 on primary human tonsillar B cells (human, UniProt P25942 21-277); experiment: cell-based or functional assay
Chain of human CD40 on primary human tonsillar B cells (P25942 21-277 limits assumed): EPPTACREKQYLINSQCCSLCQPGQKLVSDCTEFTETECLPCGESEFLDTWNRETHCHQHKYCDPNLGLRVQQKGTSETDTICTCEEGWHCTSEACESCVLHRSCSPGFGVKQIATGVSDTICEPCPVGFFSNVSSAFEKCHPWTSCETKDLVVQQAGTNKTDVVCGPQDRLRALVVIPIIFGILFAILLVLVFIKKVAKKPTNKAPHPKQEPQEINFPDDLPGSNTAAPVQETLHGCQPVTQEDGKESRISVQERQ

T1 sequence (P25942 21-193 limits assumed): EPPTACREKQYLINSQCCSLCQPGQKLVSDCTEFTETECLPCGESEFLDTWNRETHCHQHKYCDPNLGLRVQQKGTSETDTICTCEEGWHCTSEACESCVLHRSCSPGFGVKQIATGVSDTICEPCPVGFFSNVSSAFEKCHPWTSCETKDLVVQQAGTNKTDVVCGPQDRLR

Binder	Kd [1] [nM]	Kd [2] [nM]	Kd [3] [nM]	koff [3] [s⁻¹]	kon [3] [M⁻¹ s⁻¹]	IC50, inhibition of tonsillar human B cell proliferation stimulated by IZ-hCD40L trimer (M4 lot 1) [4] [µg/mL]	IC50, inhibition of tonsillar human B cell proliferation stimulated by IZ-hCD40L trimer (M4 lot 2) [4] [µg/mL]	IC50, inhibition of tonsillar human B cell proliferation stimulated by hCD40L expressing CHO cells (M4 lot 1) [4] [µg/mL]	IC50, inhibition of tonsillar human B cell proliferation stimulated by hCD40L expressing CHO cells (M4 lot 2) [4] [µg/mL]	IC50, inhibition of tonsillar human B cell proliferation stimulated by IZ-hCD40L trimer [4] [µg/mL]	IC50, inhibition of tonsillar human B cell proliferation stimulated by hCD40L expressing CHO cells [4] [µg/mL]
B1	3.6	3.6	2.8	0.00069	250000	0.0029	0.0008	0.0237	0.0396	–	–
B2	–	3.6	–	–	–	–	–	–	–	–	–
B3	4.1	4.1	3.3	0.00084	250000	–	–	–	–	0.0009	0.129
B4	3.2	3.2	2.2	0.00074	330000	–	–	–	–	0.0004	0.0547
B5	–	3.4	–	–	–	–	–	–	–	–	–
B6	–	3.9	–	–	–	–	–	–	–	–	–
B7	2.4	2.4	1.8	0.00073	400000	–	–	–	–	0.0057	0.208
B8	3.4	3.4	2.6	0.00078	300000	–	–	–	–	0.0026	0.0477
B9	8	8	8.4	0.00068	81000	–	–	–	–	0.0033	0.0208
B10	3	3	2.3	0.00075	330000	–	–	–	–	0.0033	0.201
B11	3	3	2.3	0.00067	290000	–	–	–	–	0.0277	0.353
B12	3	3	2.2	0.0007	320000	–	–	–	–	0.0007	0.0672
B13	3.2	3.2	2.5	0.0008	320000	–	–	–	–	0.0034	0.367
B14	4.1	4.1	2.9	0.0007	240000	–	–	–	–	0.0164	0.369
B15	3.9	3.9	2.8	0.00077	280000	–	–	–	–	0.0072	0.181
B16	4	4	2.9	0.00073	260000	–	–	–	–	0.0009	0.0575
B17	3.1	3.1	2.2	0.00066	300000	–	–	–	–	0.0062	0.356
